What all share (conditions): both partners purified
Test [1] concerns the target T1, LBT-TPR2A (TPR2A domain of yeast Sti1 with an N-terminal lanthanide binding tag) (yeast, UniProt P15705 252-379).
T1 construct: TPR2A domain of Sti1, yeast, aa 252-379; Loaded with equimolar Tb3+ in the assay; also called LBT-TPR2A (Sti1); LBT-TRP2A; source: E. coli Rosetta (DE3) pLysS, purified (Ni-NTA)
T1 sequence (looked up): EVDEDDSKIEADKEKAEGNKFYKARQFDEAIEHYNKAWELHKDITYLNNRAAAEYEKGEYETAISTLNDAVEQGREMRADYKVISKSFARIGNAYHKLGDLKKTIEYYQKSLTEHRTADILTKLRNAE
Description: LRET (luminescence resonance energy transfer); titration: 20 µM LBT-TPR2A-Tb3+ complex with increasing EGFP-C90 (0-15 µM); normalized LRET Em510 nm/Em490 nm; Scatchard plot; three independent experiments.

The target in test [2] is T2, LBT-TPR2A (TPR2A domain of human HOP, wild type, with an N-terminal lanthanide binding tag) (human, UniProt P31948 225-337).
T2 construct: TPR2A domain of HOP (STIP1), human, aa 225-337; Cloned into the XhoI site of pST96/LBT-MCS; Loaded with equimolar Tb3+ in the assay; also called LBT-TPR2A WT; TPR2A WT; source: E. coli Rosetta (DE3) pLysS, purified (Ni-NTA)
T2 sequence (P31948 225-337): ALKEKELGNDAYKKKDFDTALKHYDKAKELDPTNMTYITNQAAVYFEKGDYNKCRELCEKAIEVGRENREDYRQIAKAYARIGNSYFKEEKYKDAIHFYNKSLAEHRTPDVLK
Description: LRET (luminescence resonance energy transfer); equimolar mixture in solution of the LBT-tagged protein loaded with Tb3+ and the EGFP or TagRFP fusion protein (5 µM, or 25 µM for TagRFP-C70); 96-well black plates; excitation 280 nm, 100 µs delay, emission spectrum 450-600 nm.

Test [3] has as its target T3, LBT-TPR2A K229A (TPR2A domain of human HOP, point mutant K229A) (human, UniProt P31948 225-337, K229A).
T3 construct: TPR2A domain of HOP (STIP1), human, aa 225-337, with K229A; Loaded with equimolar Tb3+ in the assay; also called TPR2A mutant K229A; source: E. coli Rosetta (DE3) pLysS, purified (Ni-NTA)
The description is as above.

T3 sequence (P31948 225-337 K229A): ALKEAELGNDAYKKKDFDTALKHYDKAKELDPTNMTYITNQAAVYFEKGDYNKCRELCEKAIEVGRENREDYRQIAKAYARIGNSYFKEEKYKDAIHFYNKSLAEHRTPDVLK

B1: EGFP-C90 (last 90 amino acids of human HSP90α fused to the C-terminus of EGFP) (domain or fragment)
chain: not shown
notes: HSP90α, human, the C-terminal 90 amino acids, ending with MEEVD; EGFP in the XhoI site and C90 in the BamHI site of pET15b; source: E. coli Rosetta (DE3) pLysS, purified (Ni-NTA); not shown: EGFP, N-terminal, kept
By Kd is commonly meant the free concentration of one partner at which half of the binding sites on the other are occupied at equilibrium, for simple one-to-one binding. As to B1, in test [1], binding was put at a Kd of 4.2 µM. In addition, the binding result in test [2] and in test [3] was “binds” throughout.
